Assay results as given in IntAct's records for PubMed 17937919.

Assays:
[1] = biological target: eed_mouse Eed (UniProt Q921E6)
[2] = biological target: Ezh2, Q61188-1
Sequence of Ezh2, Q61188-1 (Q61188 whole entry): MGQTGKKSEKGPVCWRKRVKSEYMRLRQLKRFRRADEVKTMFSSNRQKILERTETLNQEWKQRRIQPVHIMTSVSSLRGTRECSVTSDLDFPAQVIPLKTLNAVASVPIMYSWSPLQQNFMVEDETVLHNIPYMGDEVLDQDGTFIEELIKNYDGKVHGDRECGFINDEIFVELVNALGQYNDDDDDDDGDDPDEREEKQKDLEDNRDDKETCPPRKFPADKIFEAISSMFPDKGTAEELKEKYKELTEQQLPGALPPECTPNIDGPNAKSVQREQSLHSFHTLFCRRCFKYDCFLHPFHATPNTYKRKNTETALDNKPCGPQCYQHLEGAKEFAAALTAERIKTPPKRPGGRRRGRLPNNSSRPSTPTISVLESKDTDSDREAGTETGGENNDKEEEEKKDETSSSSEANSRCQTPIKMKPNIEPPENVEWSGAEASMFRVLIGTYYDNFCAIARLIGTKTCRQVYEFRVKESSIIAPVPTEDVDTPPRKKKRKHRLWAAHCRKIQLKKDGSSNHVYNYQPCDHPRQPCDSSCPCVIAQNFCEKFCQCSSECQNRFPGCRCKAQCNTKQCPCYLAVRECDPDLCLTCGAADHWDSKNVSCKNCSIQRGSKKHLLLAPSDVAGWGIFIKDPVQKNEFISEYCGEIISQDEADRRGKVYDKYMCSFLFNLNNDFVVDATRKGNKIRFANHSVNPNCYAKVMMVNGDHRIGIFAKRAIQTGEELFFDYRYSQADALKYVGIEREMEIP

Sequence of eed_mouse Eed (Q921E6 whole entry, looked up): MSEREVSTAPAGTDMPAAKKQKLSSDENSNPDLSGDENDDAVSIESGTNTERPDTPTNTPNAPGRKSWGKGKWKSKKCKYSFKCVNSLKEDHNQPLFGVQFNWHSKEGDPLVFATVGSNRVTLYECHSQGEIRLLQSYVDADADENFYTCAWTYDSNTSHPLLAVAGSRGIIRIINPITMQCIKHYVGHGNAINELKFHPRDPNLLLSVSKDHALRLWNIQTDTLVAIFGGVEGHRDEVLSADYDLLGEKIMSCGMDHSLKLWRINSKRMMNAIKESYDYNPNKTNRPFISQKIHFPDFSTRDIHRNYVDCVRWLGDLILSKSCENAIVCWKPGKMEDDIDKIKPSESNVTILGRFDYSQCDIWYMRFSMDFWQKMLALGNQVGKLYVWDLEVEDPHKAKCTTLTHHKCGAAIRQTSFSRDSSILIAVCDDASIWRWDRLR
Sequence of Polycomb protein EED (Mus musculus), Q921E6 L246E (Q921E6 whole entry L246E): as the sequence (Q921E6 whole entry, looked up) above, with L246E counted along it

Row | effect of a mutation on the interaction [1] | effect of a mutation on the interaction [2] | Substance
1 | disrupting interaction | – | Histone-lysine N-methyltransferase EZH2 (Mus musculus), Q61188-1 F42D
2 | – | disrupting interaction | Polycomb protein EED (Mus musculus), Q921E6 L246E
3 | disrupting interaction | – | Histone-lysine N-methyltransferase EZH2 (Mus musculus), Q61188-1 N45A
4 | disrupting interaction | – | Histone-lysine N-methyltransferase EZH2 (Mus musculus), Q61188-1 I49E
5 | disrupting interaction | – | Histone-lysine N-methyltransferase EZH2 (Mus musculus), Q61188-1 L56E
6 | disrupting interaction | – | Histone-lysine N-methyltransferase EZH2 (Mus musculus), Q61188-1 P67D
